Test results from PMC8563995, “CCA-addition in the cold: Structural characterization of the psychrophilic CCA-adding enzyme from the permafrost bacterium Planococcus halocryophilus” (Computational and Structural Biotechnology Journal, 2021).

Test system: GstCCA (CCA-adding enzyme, tRNA nucleotidyltransferase) (Geobacillus stearothermophilus)
Test: EMSA
Settings: 10 mM MgCl2; 37 °C; EMSA: 50 mM glycine/NaOH pH 8.5, 10 mM MgCl2, 2 mM DTT, 0.3 pmol tRNA, 0-5 µM enzyme, 10 min at 37 °C (GstCCA) or 4 °C and 30 °C (PhaCCA); 5% native PAGE at …

yeast tRNAPhe lacking the CCA terminus
Kd: 1300 nM
